Source: US11819553B2, “Glypican 3 antibodies and conjugates thereof” (Seagen Inc., priority 2018, dated 2023)

Target: T1, hGPC3 (Homo sapiens, UniProt P51654)
T1 construct: endogenous in cells
Experiment: Competition binding assay on GPC3-positive cells (flow cytometry, AlexaFluor-488 labeled mGPC3-1)
Conditions: Table 6; competition with labeled mGPC3-1 on GPC3-positive cells; read-out: hGPC3 Binding of hGPC3-1 Antibody Variants EC50
Method: One hundred thousand GPC3-positive cells were transferred to 96-well plates and incubated for 1 hour on ice with 3-5 nM AlexaFluor-488 labeled mGPC3-1 and increasing concentrations (from 10 pM to 2 uM) of unlabeled humanized or murine GPC3-1 mAb. Cells were centrifuged, washed 3 times with PBS, and resuspended in 125 μL of a PBS+2% FBS solution. Fluorescence was analyzed using a flow cytometer, and the percent of saturated fluorescent signal was used to determine percent labeled GPC3-1 mAb bound. The EC50 was extrapolated by fitting the data to a sigmoidal dose-response curve with variable slope.

T1 sequence (P51654 25-554): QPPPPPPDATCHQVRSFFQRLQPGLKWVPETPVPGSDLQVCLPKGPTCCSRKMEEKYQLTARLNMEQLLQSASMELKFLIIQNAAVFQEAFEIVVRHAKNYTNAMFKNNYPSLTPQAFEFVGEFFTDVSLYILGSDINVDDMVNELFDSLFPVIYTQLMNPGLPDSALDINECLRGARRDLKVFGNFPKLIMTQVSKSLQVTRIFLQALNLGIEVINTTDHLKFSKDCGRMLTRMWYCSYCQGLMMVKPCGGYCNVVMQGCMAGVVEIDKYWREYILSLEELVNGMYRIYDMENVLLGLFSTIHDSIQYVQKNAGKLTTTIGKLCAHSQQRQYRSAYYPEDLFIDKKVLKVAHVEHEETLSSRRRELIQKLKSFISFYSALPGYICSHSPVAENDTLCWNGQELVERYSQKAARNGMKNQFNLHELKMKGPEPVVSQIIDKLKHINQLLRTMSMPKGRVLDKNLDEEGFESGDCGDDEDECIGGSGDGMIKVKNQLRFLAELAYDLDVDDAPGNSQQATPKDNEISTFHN

EC50: > 0.3 µM
B1: hGPC3-1 HALA: humanized GPC3-1 antibody with heavy chain variable region vHA and light chain variable region vLA (antibody, V domains shown)
VH: QVQLVQSGAEVKKPGASVKVSCKASGYTFTDYEMHWVRQAPGQGLEWIGGIDPETGGTAYNQKFKGRATLTADTSTSTAYMELRSLRSDDTAVYYCARYYSFAYWGQGTLVTVSS
VL: DVVMTQSPLSLPVTLGQPASISCRSSQSIVHSNGNTYLQWFQQRPGQSPRRLIYKVSNRFSGVPDRFSGSGSGTDFTLKISRVEAEDVGVYYCFQVSHVPYTFGQGTKLEIK
